Source: article PMC3548793, “CK2 Phosphorylates Sec31 and Regulates ER-To-Golgi Trafficking” (PLoS ONE, 2013)

B1: FLAG-tagged wild type (WT) Sec31 (natural protein, human, UniProt O94979 1-1220, looked up)
chain: MKLKEVDRTAMQAWSPAQNHPIYLATGTSAQQLDATFSTNASLEIFELDLSDPSLDMKSCATFSSSHRYHKLIWGPYKMDSKGDVSGVLIAGGENGNIILYDPSKIIAGDKEVVIAQNDKHTGPVRALDVNIFQTNLVASGANESEIYIWDLNNFATPMTPGAKTQPPEDISCIAWNRQVQHILASASPSGRATVWDLRKNEPIIKVSDHSNRMHCSGLAWHPDVATQMVLASEDDRLPVIQMWDLRFASSPLRVLENHARGILAIAWSMADPELLLSCGKDAKILCSNPNTGEVLYELPTNTQWCFDIQWCPRNPAVLSAASFDGRISVYSIMGGSTDGLRQKQVDKLSSSFGNLDPFGTGQPLPPLQIPQQTAQHSIVLPLKKPPKWIRRPVGASFSFGGKLVTFENVRMPSHQGAEQQQQQHHVFISQVVTEKEFLSRSDQLQQAVQSQGFINYCQKKIDASQTEFEKNVWSFLKVNFEDDSRGKYLELLGYRKEDLGKKIALALNKVDGANVALKDSDQVAQSDGEESPAAEEQLLGEHIKEEKEESEFLPSSGGTFNISVSGDIDGLITQALLTGNFESAVDLCLHDNRMADAIILAIAGGQELLARTQKKYFAKSQSKITRLITAVVMKNWKEIVESCDLKNWREALAAVLTYAKPDEFSALCDLLGTRLENEGDSLLQTQACLCYICAGNVEKLVACWTKAQDGSHPLSLQDLIEKVVILRKAVQLTQAMDTSTVGVLLAAKMSQYANLLAAQGSIAAALAFLPDNTNQPNIMQLRDRLCRAQGEPVAGHESPKIPYEKQQLPKGRPGPVAGHHQMPRVQTQQYYPHGENPPPPGFIMHGNVNPNAAGQLPTSPGHMHTQVPPYPQPQPYQPAQPYPFGTGGSAMYRPQQPVAPPTSNAYPNTPYISSASSYTGQSQLYAAQHQASSPTSSPATSFPPPPSSGASFQHGGPGAPPSSSAYALPPGTTGTLPAASELPASQRTGPQNGWNDPPALNRVPKKKKMPENFMPPVPITSPIMNPLGDPQSQMLQQQPSAPVPLSSQSSFPQPHLPGGQPFHGVQQPLGQTGMPPSFSKPNIEGAPGAPIGNTFQHVQSLPTKKITKKPIPDEHLILKTTFEDLIQRCLSSATDPQTKRKLDDASKRLEFLYDKLREQTLSPTITSGLHNIARSIETRNYSEGLTMHTHIVSTSNFSETSAFMPVLKVVLTQANKLGV
notes: Sec31a, human, cDNA clone KIAA 0905 from Kazusa DNA Research Institute, subcloned into p3×FLAG-CMV; In the cells partly phosphorylated (S527, S799, S1163, T1165 found by mass spectrometry on endogenous Sec31); also called FLAG-Sec31; human Sec31a; source: HEK293, transfected, in lysate
B2: FLAG-tagged Sec31 S527A/S799A (natural protein, human, UniProt O94979 1-1220, looked up)
chain: MKLKEVDRTAMQAWSPAQNHPIYLATGTSAQQLDATFSTNASLEIFELDLSDPSLDMKSCATFSSSHRYHKLIWGPYKMDSKGDVSGVLIAGGENGNIILYDPSKIIAGDKEVVIAQNDKHTGPVRALDVNIFQTNLVASGANESEIYIWDLNNFATPMTPGAKTQPPEDISCIAWNRQVQHILASASPSGRATVWDLRKNEPIIKVSDHSNRMHCSGLAWHPDVATQMVLASEDDRLPVIQMWDLRFASSPLRVLENHARGILAIAWSMADPELLLSCGKDAKILCSNPNTGEVLYELPTNTQWCFDIQWCPRNPAVLSAASFDGRISVYSIMGGSTDGLRQKQVDKLSSSFGNLDPFGTGQPLPPLQIPQQTAQHSIVLPLKKPPKWIRRPVGASFSFGGKLVTFENVRMPSHQGAEQQQQQHHVFISQVVTEKEFLSRSDQLQQAVQSQGFINYCQKKIDASQTEFEKNVWSFLKVNFEDDSRGKYLELLGYRKEDLGKKIALALNKVDGANVALKDSDQVAQADGEESPAAEEQLLGEHIKEEKEESEFLPSSGGTFNISVSGDIDGLITQALLTGNFESAVDLCLHDNRMADAIILAIAGGQELLARTQKKYFAKSQSKITRLITAVVMKNWKEIVESCDLKNWREALAAVLTYAKPDEFSALCDLLGTRLENEGDSLLQTQACLCYICAGNVEKLVACWTKAQDGSHPLSLQDLIEKVVILRKAVQLTQAMDTSTVGVLLAAKMSQYANLLAAQGSIAAALAFLPDNTNQPNIMQLRDRLCRAQGEPVAGHEAPKIPYEKQQLPKGRPGPVAGHHQMPRVQTQQYYPHGENPPPPGFIMHGNVNPNAAGQLPTSPGHMHTQVPPYPQPQPYQPAQPYPFGTGGSAMYRPQQPVAPPTSNAYPNTPYISSASSYTGQSQLYAAQHQASSPTSSPATSFPPPPSSGASFQHGGPGAPPSSSAYALPPGTTGTLPAASELPASQRTGPQNGWNDPPALNRVPKKKKMPENFMPPVPITSPIMNPLGDPQSQMLQQQPSAPVPLSSQSSFPQPHLPGGQPFHGVQQPLGQTGMPPSFSKPNIEGAPGAPIGNTFQHVQSLPTKKITKKPIPDEHLILKTTFEDLIQRCLSSATDPQTKRKLDDASKRLEFLYDKLREQTLSPTITSGLHNIARSIETRNYSEGLTMHTHIVSTSNFSETSAFMPVLKVVLTQANKLGV
notes: Sec31a, human, cDNA clone KIAA 0905, point mutations by QuikChange; also called S527/S799; source: HEK293, transfected, in lysate

Biological target: T1, GFP-tagged Sec23 (UniProt Q15436 1-765)
T1 construct: Sec23a; plasmid YFP-Sec23a was a gift; The results and legends call it GFP-tagged Sec23; the only Sec23 plasmid named in the methods is YFP-Sec23a; also called GFP-Sec23; YFP-Sec23a; source: HEK293, transfected, in lysate
Experiment: co-IP; HEK293 cells co-transfected with FLAG-tagged Sec31 (WT or mutants) and GFP-tagged Sec23 or GFP-Sec13; GFP-tagged protein immunoprecipitated with anti-GFP beads, blot with anti-FLAG; 10 mM HEPES-KOH pH 7.4, 100 mM KCl, 0.1 mM DTT, 2.5 mM MgCl2, 1% Triton X-100, 30 min at 4°C; in Figure 6 cells transfected two days before with or without siRNA1 to CK2 alpha1
Settings: partners not purified

T1 sequence (Q15436 whole entry): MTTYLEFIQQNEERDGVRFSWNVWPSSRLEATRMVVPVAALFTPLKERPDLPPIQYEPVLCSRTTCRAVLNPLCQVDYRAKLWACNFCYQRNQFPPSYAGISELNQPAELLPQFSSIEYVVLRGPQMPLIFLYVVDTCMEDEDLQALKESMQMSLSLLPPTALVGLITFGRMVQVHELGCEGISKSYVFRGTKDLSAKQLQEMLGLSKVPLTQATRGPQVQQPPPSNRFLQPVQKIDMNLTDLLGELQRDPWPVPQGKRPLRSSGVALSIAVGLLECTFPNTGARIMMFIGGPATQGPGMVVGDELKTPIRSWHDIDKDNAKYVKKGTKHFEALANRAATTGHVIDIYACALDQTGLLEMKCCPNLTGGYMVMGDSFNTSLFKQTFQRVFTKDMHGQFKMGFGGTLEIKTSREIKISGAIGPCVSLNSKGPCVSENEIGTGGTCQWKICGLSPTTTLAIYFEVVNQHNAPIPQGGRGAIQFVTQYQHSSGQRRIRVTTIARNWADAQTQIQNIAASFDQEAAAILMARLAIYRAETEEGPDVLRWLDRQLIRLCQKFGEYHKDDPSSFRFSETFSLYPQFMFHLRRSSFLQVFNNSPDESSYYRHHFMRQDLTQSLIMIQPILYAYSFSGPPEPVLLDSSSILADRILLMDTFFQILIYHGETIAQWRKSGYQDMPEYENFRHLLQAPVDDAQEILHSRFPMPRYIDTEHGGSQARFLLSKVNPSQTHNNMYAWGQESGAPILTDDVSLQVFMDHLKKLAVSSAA

Binder | fold change of Sec31 co-precipitated with Sec23, CK2 depleted by siRNA1 against not depleted [fold] | fold change of Sec31 co-precipitated with Sec23 against wild type [fold]
B1 | ~3 | 
B2 |  | 3
